Assay: Dynamic light scattering
Type: physicochemical
Settings: PBS, 100 mM MgCl2; insulin 25 µM, dAb 1 mg/mL; Figure S2 and S3

For “insulin: human insulin obtained from R&D Systems; analyte of the assay”, the “aggregation under buffer conditions (DLS)” value was “No aggregation”.

Reference: publication PMC7856282 (Nature biomedical engineering, 2020)
